tested on: Escherichia coli TOP10; test: shrunken log2 fold change of peptide-encoding DNA abundance (4.5 h post-induction vs induction); higher = less antimicrobial activity (less host growth inhibition); details: time post-induction: 4.5 h; library: site-saturation at positions 5, 18, 19, 20
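Note: peptides expressed intracellularly from a pBAD plasmid library in pooled LB shake-flask culture, induced with 0.3% L-arabinose, DNA abundance read by NGS, three biological replicates, DESeq2 with apeglm shrinkage.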

Row | Sequence | shrunken log2 fold change
1 | RRIRCRPPRLPRPRPRPIESPRP | 0.204
2 | RRIRTRPPRLPRPRPRPADPPRP | 0.0203
3 | RRIRPRPPRLPRPRPRPDWMPRP | -0.212
4 | RRIRKRPPRLPRPRPRPCRIPRP | -0.0405
5 | RRIRPRPPRLPRPRPRPMRVPRP | 0.998
6 | RRIRYRPPRLPRPRPRPWWFPRP | -0.195
7 | RRIRLRPPRLPRPRPRPLHEPRP | -0.00702
8 | RRIRFRPPRLPRPRPRPECCPRP | 0.225
9 | RRIRMRPPRLPRPRPRPVWNPRP | -0.0831
10 | RRIRHRPPRLPRPRPRPMCCPRP | 0.101
11 | RRIRNRPPRLPRPRPRPPVWPRP | 0.476
12 | RRIRWRPPRLPRPRPRPVTSPRP | 0.112
13 | RRIRKRPPRLPRPRPRPEKKPRP | -0.018
14 | RRIRIRPPRLPRPRPRPFVIPRP | 0.0556
15 | RRIRRRPPRLPRPRPRPHYMPRP | -0.126
16 | RRIRTRPPRLPRPRPRPDTQPRP | 0.0514
17 | RRIRRRPPRLPRPRPRPYASPRP | -0.0782
18 | RRIRFRPPRLPRPRPRPLCIPRP | -0.571
19 | RRIRIRPPRLPRPRPRPLHGPRP | -0.308
20 | RRIRLRPPRLPRPRPRPESPPRP | 0.124
21 | RRIRVRPPRLPRPRPRPKQSPRP | 0.0123
22 | RRIRGRPPRLPRPRPRPSRRPRP | 0.647
23 | RRIRHRPPRLPRPRPRPEVAPRP | -0.00165
24 | RRIRVRPPRLPRPRPRPMYAPRP | -0.17
25 | RRIRKRPPRLPRPRPRPCVGPRP | 0.334

Row | Sequence | shrunken log2 fold change
26 | RRIRYRPPRLPRPRPRPESIPRP | -0.42
27 | RRIRCRPPRLPRPRPRPLQGPRP | 0.0488
28 | RRIRQRPPRLPRPRPRPWRLPRP | -0.0759
29 | RRIRGRPPRLPRPRPRPWFFPRP | 0.169
30 | RRIRMRPPRLPRPRPRPPYAPRP | 0.291
31 | RRIRCRPPRLPRPRPRPQRKPRP | 0.203
32 | RRIRWRPPRLPRPRPRPLTLPRP | -0.00729
33 | RRIRKRPPRLPRPRPRPRDFPRP | 0.188
34 | RRIRQRPPRLPRPRPRPEYWPRP | 0.0626
35 | RRIRSRPPRLPRPRPRPNIDPRP | -0.204
36 | RRIRFRPPRLPRPRPRPQYRPRP | -0.171
37 | RRIRLRPPRLPRPRPRPRIGPRP | 0.0176
38 | RRIRTRPPRLPRPRPRPTYSPRP | -1.56
39 | RRIRTRPPRLPRPRPRPFYYPRP | -0.55
40 | RRIRFRPPRLPRPRPRPRLIPRP | -0.261
41 | RRIRERPPRLPRPRPRPANKPRP | -0.632
42 | RRIRYRPPRLPRPRPRPKSPPRP | 0.0245
43 | RRIRQRPPRLPRPRPRPDYAPRP | -0.00674
44 | RRIRARPPRLPRPRPRPGMVPRP | 0.509
45 | RRIRARPPRLPRPRPRPNHHPRP | -0.223
46 | RRIRGRPPRLPRPRPRPIYAPRP | 0.14
47 | RRIRWRPPRLPRPRPRPLAWPRP | 0.474
48 | RRIRQRPPRLPRPRPRPTQPPRP | 0.356
49 | RRIRFRPPRLPRPRPRPLQSPRP | 0.11
50 | RRIRERPPRLPRPRPRPICGPRP | 0.0966

Row | Sequence | shrunken log2 fold change
51 | RRIRVRPPRLPRPRPRPWTHPRP | -0.104
52 | RRIRKRPPRLPRPRPRPRHFPRP | 0.0965
53 | RRIRYRPPRLPRPRPRPLLIPRP | -0.798
54 | RRIRARPPRLPRPRPRPYGMPRP | -0.684
55 | RRIRYRPPRLPRPRPRPCEYPRP | -0.138
56 | RRIRFRPPRLPRPRPRPYFGPRP | -1.15
57 | RRIRPRPPRLPRPRPRPTFQPRP | 0.408
58 | RRIRERPPRLPRPRPRPKPEPRP | 0.12
59 | RRIRYRPPRLPRPRPRPKKDPRP | -0.719
60 | RRIRPRPPRLPRPRPRPKEGPRP | -0.00237
61 | RRIRQRPPRLPRPRPRPLMKPRP | 0.158
62 | RRIRFRPPRLPRPRPRPYATPRP | -0.419
63 | RRIRARPPRLPRPRPRPQVWPRP | 0.275
64 | RRIRHRPPRLPRPRPRPTWNPRP | -0.267
65 | RRIRRRPPRLPRPRPRPQEAPRP | 0.0364
66 | RRIRRRPPRLPRPRPRPAFVPRP | 0.36
67 | RRIRQRPPRLPRPRPRPYAYPRP | -0.0214
68 | RRIRYRPPRLPRPRPRPDGQPRP | 0.0173
69 | RRIRLRPPRLPRPRPRPNWHPRP | -0.0136
70 | RRIRGRPPRLPRPRPRPMFIPRP | 0.0775
71 | RRIRNRPPRLPRPRPRPVPKPRP | 0.883
72 | RRIRWRPPRLPRPRPRPYCDPRP | -0.218
73 | RRIRMRPPRLPRPRPRPHCDPRP | -0.0833
74 | RRIRRRPPRLPRPRPRPDYKPRP | -0.284
75 | RRIRNRPPRLPRPRPRPKNEPRP | -0.0366

Row | Sequence | shrunken log2 fold change
76 | RRIRERPPRLPRPRPRPHVTPRP | -0.228
77 | RRIRMRPPRLPRPRPRPWLLPRP | -0.0297
78 | RRIRSRPPRLPRPRPRPLCQPRP | -0.135
79 | RRIRERPPRLPRPRPRPLRLPRP | 0.304
80 | RRIRARPPRLPRPRPRPYMEPRP | -0.348
81 | RRIRHRPPRLPRPRPRPSHLPRP | -0.0467
82 | RRIRLRPPRLPRPRPRPQWVPRP | -0.0367
83 | RRIRPRPPRLPRPRPRPLVSPRP | 0.00371
84 | RRIRDRPPRLPRPRPRPACKPRP | 0.00774
85 | RRIRHRPPRLPRPRPRPNMFPRP | -0.464
86 | RRIRSRPPRLPRPRPRPWLIPRP | -0.0422
87 | RRIRERPPRLPRPRPRPEAVPRP | 0.292
88 | RRIRSRPPRLPRPRPRPDHDPRP | -0.357
89 | RRIRDRPPRLPRPRPRPFTCPRP | -0.00884
90 | RRIRMRPPRLPRPRPRPQTRPRP | 1.05
91 | RRIRDRPPRLPRPRPRPLLPPRP | 0.356
92 | RRIRPRPPRLPRPRPRPMYHPRP | -0.35
93 | RRIRGRPPRLPRPRPRPQHIPRP | -0.281
94 | RRIRTRPPRLPRPRPRPSKYPRP | 0.557
95 | RRIRTRPPRLPRPRPRPNDKPRP | -0.605
96 | RRIRARPPRLPRPRPRPVIAPRP | 0.161
97 | RRIRFRPPRLPRPRPRPRHGPRP | 0.155
98 | RRIRARPPRLPRPRPRPALRPRP | 0.363
99 | RRIRERPPRLPRPRPRPLKHPRP | -0.425
100 | RRIRIRPPRLPRPRPRPTNPPRP | -0.454

Row | Sequence | shrunken log2 fold change
101 | RRIRFRPPRLPRPRPRPVMDPRP | -0.378
102 | RRIRQRPPRLPRPRPRPANLPRP | 0.164
103 | RRIRMRPPRLPRPRPRPYMPPRP | -0.312
104 | RRIRERPPRLPRPRPRPDTTPRP | 0.0503
105 | RRIRMRPPRLPRPRPRPDIEPRP | 1.3
106 | RRIRSRPPRLPRPRPRPVNLPRP | -0.0294
107 | RRIRPRPPRLPRPRPRPSYFPRP | -0.514
108 | RRIRQRPPRLPRPRPRPVRPPRP | 0.162
109 | RRIRYRPPRLPRPRPRPIPMPRP | -0.807
110 | RRIRWRPPRLPRPRPRPWGWPRP | 0.276
111 | RRIRIRPPRLPRPRPRPNTMPRP | -0.264
112 | RRIRFRPPRLPRPRPRPFELPRP | -0.0457
113 | RRIRMRPPRLPRPRPRPKAHPRP | 0.892
114 | RRIRMRPPRLPRPRPRPIFCPRP | -0.0454
115 | RRIRERPPRLPRPRPRPDEMPRP | -0.0223
116 | RRIRYRPPRLPRPRPRPECDPRP | -0.235
117 | RRIRNRPPRLPRPRPRPAWNPRP | -0.0495
118 | RRIRIRPPRLPRPRPRPVQDPRP | -1.09
119 | RRIRYRPPRLPRPRPRPPASPRP | 0.249
120 | RRIRPRPPRLPRPRPRPVSVPRP | 0.0528
121 | RRIRRRPPRLPRPRPRPSHYPRP | -0.131
122 | RRIRMRPPRLPRPRPRPKHTPRP | 1.93
123 | RRIRMRPPRLPRPRPRPLLGPRP | 0.495
124 | RRIRTRPPRLPRPRPRPFEKPRP | -0.0979
125 | RRIRDRPPRLPRPRPRPTDEPRP | 0.0606

Row | Sequence | shrunken log2 fold change
126 | RRIRTRPPRLPRPRPRPYICPRP | -0.143
127 | RRIRHRPPRLPRPRPRPASKPRP | -0.0351
128 | RRIRWRPPRLPRPRPRPTHCPRP | 0.213
129 | RRIRLRPPRLPRPRPRPGHDPRP | 0.147
130 | RRIRVRPPRLPRPRPRPRFWPRP | 0.64
131 | RRIRSRPPRLPRPRPRPMTYPRP | 0.132
132 | RRIRWRPPRLPRPRPRPDTTPRP | 0.255
133 | RRIRTRPPRLPRPRPRPDFEPRP | 0.0498
134 | RRIRGRPPRLPRPRPRPLEQPRP | 0.435
135 | RRIRIRPPRLPRPRPRPAYNPRP | -0.111
136 | RRIRRRPPRLPRPRPRPNMTPRP | -0.136
137 | RRIRRRPPRLPRPRPRPDRQPRP | -0.114
138 | RRIRRRPPRLPRPRPRPTLFPRP | 0.826
139 | RRIRCRPPRLPRPRPRPDLWPRP | 0.134
140 | RRIRARPPRLPRPRPRPHGPPRP | 0.321
141 | RRIRIRPPRLPRPRPRPDRYPRP | -0.032
142 | RRIRYRPPRLPRPRPRPCVMPRP | 0.0476
143 | RRIRARPPRLPRPRPRPLKLPRP | -0.152
144 | RRIRCRPPRLPRPRPRPKKFPRP | -0.00227
145 | RRIRQRPPRLPRPRPRPDLDPRP | 0.0552
146 | RRIRARPPRLPRPRPRPDQFPRP | 0.389
147 | RRIRHRPPRLPRPRPRPRWLPRP | 0.144
148 | RRIRERPPRLPRPRPRPTSRPRP | 0.249
149 | RRIRMRPPRLPRPRPRPVQPPRP | 0.229
150 | RRIRIRPPRLPRPRPRPADMPRP | -0.0222
